The target of data set [1] is T1, dUnr CSD789 (Drosophila melanogaster, UniProt B7Z0E2 756-990).
T1 sequence: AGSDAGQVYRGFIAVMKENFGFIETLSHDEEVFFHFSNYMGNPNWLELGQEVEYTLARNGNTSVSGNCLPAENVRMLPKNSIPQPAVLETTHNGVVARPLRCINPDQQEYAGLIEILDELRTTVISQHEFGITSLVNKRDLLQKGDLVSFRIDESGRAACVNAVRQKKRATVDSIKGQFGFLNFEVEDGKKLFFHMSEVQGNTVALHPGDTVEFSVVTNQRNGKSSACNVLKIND
Kind of data set: EMSA; EMSA: 20 mM HEPES/NaOH pH 7.5, 50 mM NaCl, 10% glycerol, 2 mM DTT, 1 h at 4 C, ~25 nM RNA; NMR: 20 mM NaP pH 6.5, 50 mM NaCl, 1 mM DTT (10 mM for CSD12), 10% D2O, 298 K. Particulars: protein: recombinant; tags: tag cleaved with TEV; label: 3' pCp-Cy5; stem loops. On the technique in general: A gel shift assay detects complexes by their altered migration in electrophoresis.

A further data set deals with T2, dUnr CSD456 (Drosophila melanogaster, UniProt B7Z0E2 424-677).
T2 sequence: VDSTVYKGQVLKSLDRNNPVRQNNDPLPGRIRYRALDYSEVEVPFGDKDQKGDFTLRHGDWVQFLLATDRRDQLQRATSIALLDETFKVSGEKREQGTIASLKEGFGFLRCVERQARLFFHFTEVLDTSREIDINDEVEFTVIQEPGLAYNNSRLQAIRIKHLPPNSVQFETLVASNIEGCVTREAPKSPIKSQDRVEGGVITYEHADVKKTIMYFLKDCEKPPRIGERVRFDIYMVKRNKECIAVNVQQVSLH
The description is as above. Conditions: protein: recombinant; tags: tag cleaved with TEV; label: 3' pCp-Cy5; stem loops.

Another data set has as its target T3, Unr full-length (dUnr) (Drosophila melanogaster, UniProt B7Z0E2 1-1039).
T3 sequence: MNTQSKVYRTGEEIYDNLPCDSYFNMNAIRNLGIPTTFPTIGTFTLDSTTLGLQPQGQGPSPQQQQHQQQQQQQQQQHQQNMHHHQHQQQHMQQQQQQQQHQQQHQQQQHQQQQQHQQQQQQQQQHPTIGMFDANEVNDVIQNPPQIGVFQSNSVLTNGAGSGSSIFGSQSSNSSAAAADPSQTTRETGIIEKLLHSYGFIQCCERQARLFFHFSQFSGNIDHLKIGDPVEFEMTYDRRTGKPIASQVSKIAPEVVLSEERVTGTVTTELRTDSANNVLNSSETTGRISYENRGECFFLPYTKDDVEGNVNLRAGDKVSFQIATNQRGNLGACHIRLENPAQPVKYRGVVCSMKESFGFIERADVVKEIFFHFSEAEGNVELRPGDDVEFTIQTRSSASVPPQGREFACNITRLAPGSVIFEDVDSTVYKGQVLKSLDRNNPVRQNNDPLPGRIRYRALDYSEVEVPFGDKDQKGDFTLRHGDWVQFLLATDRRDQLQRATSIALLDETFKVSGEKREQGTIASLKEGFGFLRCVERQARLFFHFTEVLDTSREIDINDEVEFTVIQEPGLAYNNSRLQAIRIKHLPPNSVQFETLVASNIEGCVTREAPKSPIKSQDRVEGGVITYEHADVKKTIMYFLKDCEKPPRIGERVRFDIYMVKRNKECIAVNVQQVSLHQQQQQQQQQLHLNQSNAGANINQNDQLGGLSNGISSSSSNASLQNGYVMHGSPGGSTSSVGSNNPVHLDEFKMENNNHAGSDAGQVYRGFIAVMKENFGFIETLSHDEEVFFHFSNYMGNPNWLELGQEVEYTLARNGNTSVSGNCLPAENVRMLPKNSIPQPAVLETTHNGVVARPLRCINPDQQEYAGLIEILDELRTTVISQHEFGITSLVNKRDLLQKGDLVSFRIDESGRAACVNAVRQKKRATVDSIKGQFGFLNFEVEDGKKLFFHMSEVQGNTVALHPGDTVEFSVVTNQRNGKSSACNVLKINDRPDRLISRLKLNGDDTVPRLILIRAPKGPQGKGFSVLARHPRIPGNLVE
The description is as above. Conditions: protein: recombinant; tags: His6; label: 3' pCp-Cy5; stem loops.

Another data set concerns the target T4, dUnr CSD123 (Drosophila melanogaster, UniProt B7Z0E2 186-414).
T4 sequence: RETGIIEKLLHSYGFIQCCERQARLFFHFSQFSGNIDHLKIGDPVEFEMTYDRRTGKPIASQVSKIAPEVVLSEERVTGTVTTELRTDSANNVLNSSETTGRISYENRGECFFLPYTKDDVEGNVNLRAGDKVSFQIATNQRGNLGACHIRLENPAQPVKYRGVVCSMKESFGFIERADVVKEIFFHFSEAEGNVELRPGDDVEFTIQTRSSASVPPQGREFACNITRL
The description is as above. Particulars: protein: recombinant; tags: tag cleaved with TEV; label: 3' pCp-Cy5; stem loops.

In another data set the target is T5, dUnr ncCSD8 (Drosophila melanogaster, UniProt B7Z0E2 841-922).
T5 sequence: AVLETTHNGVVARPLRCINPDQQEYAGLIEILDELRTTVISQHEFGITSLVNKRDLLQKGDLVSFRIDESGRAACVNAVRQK
Put plainly: NMR titration; no CSPs; EMSA: 20 mM HEPES/NaOH pH 7.5, 50 mM NaCl, 10% glycerol, 2 mM DTT, 1 h at 4 C, ~25 nM RNA; NMR: 20 mM NaP pH 6.5, 50 mM NaCl, 1 mM DTT (10 mM for CSD12), 10% D2O, 298 K. Conditions: protein: recombinant; tags: tag cleaved with TEV.

A further data set has as its target T6, dUnr ncCSD6 (Drosophila melanogaster, UniProt B7Z0E2 593-677).
T6 sequence: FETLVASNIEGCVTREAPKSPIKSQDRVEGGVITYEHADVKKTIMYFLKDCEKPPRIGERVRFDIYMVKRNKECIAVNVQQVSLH
Described as above. Conditions: protein: recombinant; tags: tag cleaved with TEV.

A further data set addresses T7, dUnr CSD78 (Drosophila melanogaster, UniProt B7Z0E2 756-922).
T7 sequence: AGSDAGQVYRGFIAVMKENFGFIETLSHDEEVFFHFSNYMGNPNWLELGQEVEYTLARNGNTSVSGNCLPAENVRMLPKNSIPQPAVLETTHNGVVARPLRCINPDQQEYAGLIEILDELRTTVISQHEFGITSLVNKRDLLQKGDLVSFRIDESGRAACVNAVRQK
Kind of data set: NMR titration; joint range given for CSD78 and CSD9; EMSA: 20 mM HEPES/NaOH pH 7.5, 50 mM NaCl, 10% glycerol, 2 mM DTT, 1 h at 4 C, ~25 nM RNA; NMR: 20 mM NaP pH 6.5, 50 mM NaCl, 1 mM DTT (10 mM for CSD12), 10% D2O, 298 K. Particulars: protein: recombinant; tags: tag cleaved with TEV.

The target of another data set is T8, dUnr CSD9 (Drosophila melanogaster, UniProt B7Z0E2 898-990).
T8 sequence: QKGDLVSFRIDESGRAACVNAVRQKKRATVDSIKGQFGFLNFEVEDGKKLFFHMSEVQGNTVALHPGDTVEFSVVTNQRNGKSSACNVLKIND
The data set is described as above. Conditions: protein: recombinant; tags: tag cleaved with TEV.

Data set [2] concerns the target T1, dUnr CSD789. Put plainly: NMR titration; deuterated protein; CSPs in all three domains, intermediate-to-slow exchange; EMSA: 20 mM HEPES/NaOH pH 7.5, 50 mM NaCl, 10% glycerol, 2 mM DTT, 1 h at 4 C, ~25 nM RNA; NMR: 20 mM NaP pH 6.5, 50 mM NaCl, 1 mM DTT (10 mM for CSD12), 10% D2O, 298 K. Particulars: protein: recombinant; tags: tag cleaved with TEV.

B1: SL67 (roX2 lncRNA stem loops 6 and 7) (structured_RNA)
RNA: ACAAUAUGCAAUACAAUACAAUACAAGACAAAAAAAUGUGUCUUGGAACCAACAUUGUACAAGUCGCAAUGCAAACUGAAGUCUUAAAAGACGUGUAAAAUGUUGCAAAUUAAGCAAAUAUAUAUGCAUAUAUGGGUAACGUUUUACGCGCCUUAACCAGU
What is called Kd is a measure of binding affinity in units of concentration. On to B1, for which the Kd was 32 µM with dUnr CSD789 [1], 16 µM with dUnr CSD456, 0.707 µM with Unr full-length (dUnr) and 1.41 µM in the data set with dUnr CSD123.

For the molecule AAAAAAAUG (ssRNA) [9-mer RNA from roX2 SL6 loop], the binding result with dUnr ncCSD8 and with dUnr ncCSD6 was “no binding” each time. Moreover, the equilibrium dissociation constant (Kd) in the data set with dUnr CSD78 and with dUnr CSD9 was approximately 245 µM in each case.

AAAAAAAAAAAAAAA (ssRNA) [A15-mer RNA]: the binding result with dUnr CSD789 [2] was “binds”.

The values are drawn from publication PMC7383231, “Pseudo-RNA-Binding Domains Mediate RNA Structure Specificity in Upstream of N-Ras”.
